Measurements: article PMC4619830

Biological target: T1, SoxR (MerR-type HTH transcriptional regulator) (Acinetobacter baumannii AYE) (UniProt C7FFS1)
T1 sequence: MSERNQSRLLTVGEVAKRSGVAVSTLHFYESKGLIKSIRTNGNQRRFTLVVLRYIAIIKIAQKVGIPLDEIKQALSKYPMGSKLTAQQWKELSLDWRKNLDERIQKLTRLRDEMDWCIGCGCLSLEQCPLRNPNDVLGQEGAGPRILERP
Assay: EMSA
Conditions: not stated (gel shift as described previously, 20)

**Q.** Which binding does the source give for “GGCTGCTCGGTATGATGTCGTTAATTAACAGAAGTAAATGCCGCTTCGAGATTTTGTGATGATCAACGAGCGGTATAAAAAAGACAAGTAGAATTAAACAATAAATGTAATTAAGACAAAAACAAAGCGTGATTGAATATTTCCAACAAACCAATAAAAAACCAGTTAACGAGTGTCACTTAAAATTCATGAATTCTTCATGATCATGTCAAACAAAGCA (double strand) [abeD promoter fragment]” here?
**A.** binds
